Assays:
[1] = biological target: a site on the cancer and normal cell surface (human); assay: whole-cell binding assay on UISO-Mel-2 cells with 125I azurin, Scatchard analysis
[2] = biological target: a site on the cancer and normal cell surface (human); assay: whole-cell binding assay on UISO-Mel-2 cells, 125I azurin with or without unlabeled competitor, Scatchard analysis

Substance | Bmax [1] [pm] | Kd [1] [nM] | Bmax [2]
azurin from Pseudomonas aeruginosa (wt-azurin) | 0.48 | 10 | 
p18, Leu50-Gly67 of Pseudomonas aeruginosa azurin (peptide) |  |  | 0.51 pm
p28, Leu50-Asp77 of Pseudomonas aeruginosa azurin (peptide) |  |  | 3
